Three substances from patent US20220267447A1 can be followed below.

The target of assay [1] is JAK1 kinase domain (JH1) (Homo sapiens (Human)) (UniProt P23458). Put plainly: cell-based or functional assay.
A further assay concerns the target JAK2 kinase domain (JH1). As to the kind of experiment: cell-based or functional assay.
The target in the next assay is JAK3 kinase domain (JH1). As to the kind of experiment: cell-based or functional assay.
A further assay deals with TYK2 kinase domain (JH1). As to the kind of experiment: cell-based or functional assay.
Assay [2] deals with JAK1-Y1034 phosphopeptide with an alanine substitution at the +3 position (Homo sapiens). Put plainly: ITC. For orientation: Isothermal titration calorimetry measures the heat released or taken up as one component is titrated into another.
Assay [3] concerns the target JAK1 activation loop phosphopeptide (Tyr1034 phosphorylated) (Homo sapiens). As to the kind of experiment: ITC.

Sequence of JAK1 kinase domain (JH1) (Homo sapiens (Human)) (P23458 854-1154 limits assumed): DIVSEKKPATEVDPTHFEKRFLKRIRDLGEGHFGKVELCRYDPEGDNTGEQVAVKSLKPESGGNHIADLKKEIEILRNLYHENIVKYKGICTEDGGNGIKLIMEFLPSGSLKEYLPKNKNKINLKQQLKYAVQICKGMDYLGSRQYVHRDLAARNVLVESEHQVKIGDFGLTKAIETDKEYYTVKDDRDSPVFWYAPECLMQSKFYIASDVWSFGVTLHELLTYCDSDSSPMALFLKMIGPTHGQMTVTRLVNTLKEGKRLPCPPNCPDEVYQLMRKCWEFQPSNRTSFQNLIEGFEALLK
Sequence of human CIS lacking the N-terminal 34 residues (AN34), trimeric complex with elongin B and elongin C (Q9NSE2 35-258): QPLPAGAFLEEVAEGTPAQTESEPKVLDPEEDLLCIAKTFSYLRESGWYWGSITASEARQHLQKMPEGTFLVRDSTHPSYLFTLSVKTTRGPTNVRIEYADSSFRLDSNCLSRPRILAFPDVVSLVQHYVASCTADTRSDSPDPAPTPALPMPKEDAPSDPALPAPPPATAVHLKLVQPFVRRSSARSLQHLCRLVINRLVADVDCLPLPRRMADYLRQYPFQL
Sequence of human CIS lacking the N-terminal 34 residues (AN34), trimeric complex with elongin B and elongin C (Q15370 whole entry): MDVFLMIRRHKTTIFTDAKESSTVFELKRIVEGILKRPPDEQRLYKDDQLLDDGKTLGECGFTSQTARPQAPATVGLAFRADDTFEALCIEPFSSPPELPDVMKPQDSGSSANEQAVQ
Sequence of human CIS lacking the N-terminal 34 residues (AN34), trimeric complex with elongin B and elongin C (Q15369 17-112): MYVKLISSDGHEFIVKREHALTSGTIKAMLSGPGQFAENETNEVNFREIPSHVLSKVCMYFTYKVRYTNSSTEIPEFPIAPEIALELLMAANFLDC

As to “hCIS-SH2-BC: recombinant trimeric complex of a human GST-CIS construct (hCIS-SH2) with Elongins B and C (from UniProt Q9NSE2 66-258; Q15370 1-118; Q15369 17-112)”, the IC50, inhibition of JAK1 phosphorylation of a substrate peptide (in vitro kinase assay) in assay [1] is 120 nM. The substance also displayed an efficiency of JAK1 JH1 kinase inhibition relative to SOCS1 in assay [1] of 100 fold. The kinase inhibition relative to inhibition of JAK1 (in vitro kinase assay with JH1 domains) in the assay with JAK2 kinase domain (JH1), with JAK3 kinase domain (JH1) and in the assay with TYK2 kinase domain (JH1) was 20 fold throughout.

“human CIS lacking both the N-terminal region (residues 1-66) and the PEST motif (ANT/APEST), trimeric complex with elongin B and elongin C (from UniProt Q9NSE2 67-258; Q15370 1-118; Q15369 17-112)” displayed a fold reduction of binding against the wild-type JAK1-Y1034 phosphopeptide in assay [2] of 4 fold. Moreover, the IC50, inhibition of the JAK1 kinase domain (JH1) in an in vitro kinase reaction in assay [1] is 600 nM.

For “human CIS lacking the N-terminal 34 residues (AN34), trimeric complex with elongin B and elongin C (from UniProt Q9NSE2 35-258; Q15370 1-118; Q15369 17-112)”, the Kd (commonly the free concentration of one partner at which half of the binding sites on the other are occupied at equilibrium, for simple one-to-one binding) in assay [3] lay within 2200 to 10000 nM.
